# Experimental data as given in patent US20190022179A1 (B G NEGEV TECHNOLOGIES AND APPLICATIONS, published 2019).
# Legend:
# [1] = biological target: T1, recombinant human SOD1^WT, 6His-tagged (N-term), expressed in E. coli (human, UniProt P00441 2-154, in the MST assay labeled with BLUE fluorescent dye NT-495-NHS (lysine chemistry)); assay: MST fluorescence change, labeled SOD1^WT 200 nM
# T1 construct: also called wild type SOD1; not shown: N-terminal 6His tag from pHIS1 vector
# [2] = biological target: T2, recombinant human SOD1^G93A, 6His-tagged (N-term), expressed in E. coli (human, UniProt P00441 2-154, G93A, in the MST assay labeled with BLUE fluorescent dye NT-495-NHS (lysine chemistry)); assay: MST instrument, fluorescence change of labeled SOD1^G93A (300 nM), peptide 0-100 µM
# T2 construct: Dimer by gel filtration, partially monomerizes and precipitates at 37 C; also called SOD1M; not shown: N-terminal 6His tag from pHIS1 vector
# [3] = biological target: T1, recombinant human SOD1^WT, 6His-tagged …; assay: MST instrument, fluorescence change of labeled SOD1^WT (200 nM), peptide 0-100 µM
# Experimental: Fluorescently labeled recombinant SOD1G93A (300 nM) (FIG. 3A) or SOD1^WT (200 nM) (FIG. 3B) were incubated for 1.5 h at r.t. with increasing concentrations of a peptide, and the fluorescence was measured using an MST instrument (NanoTemper). […] The curves represent the non-linear regression analyses of the data using a logistic (three parameters) function. The results are expressed as the mean±S.D. of at least three independent experiments.
# The assessment of peptide binding to the proteins was carried out using Monolith NT.115 (NanoTemper Technologies, Munchen, Germany). […] The final concentration of either DMSO or DMF in the binding buffer was 1%. […] The binding data were analyzed by a non-linear regression using a logistic (three parameter) function implemented in Prism6 (GraphPad) program.
# The binding of synthetic peptides to fluorescently labeled SOD1^WT or SOD1^G93A was assessed using a microscale thermophoresis technique (MST).
# T1 sequence (P00441 2-154): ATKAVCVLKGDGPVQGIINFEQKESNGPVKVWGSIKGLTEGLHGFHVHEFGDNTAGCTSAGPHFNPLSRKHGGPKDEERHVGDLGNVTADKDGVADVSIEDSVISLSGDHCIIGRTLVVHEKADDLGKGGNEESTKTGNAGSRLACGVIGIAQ
# T2 sequence (P00441 2-154 G94A): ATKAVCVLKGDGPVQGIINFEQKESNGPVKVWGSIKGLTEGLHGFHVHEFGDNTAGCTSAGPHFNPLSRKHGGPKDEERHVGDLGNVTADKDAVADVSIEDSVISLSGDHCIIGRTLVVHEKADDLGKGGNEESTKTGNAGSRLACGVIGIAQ
binding result [1],binding result [2],binding result [3],Binder
no binding (tested: peptide 0-100 µM),binds,,DKDGVADVSIEDSVISLSGD (Synthesized by GL Biochem; purity >90%) [peptide SE-11 (SOD1 aa. 90-109)]
,binds,binds,LSGDHCIIGRTLVVHEKADD (Synthesized by GL Biochem; purity >90%) [peptide SE-12 (SOD1 aa. 106-125)]
